# Reference: patent publication US20230110188A1 (ARGENX IIP, published 2023)
# Residue numbers refer to the chain shown, from its start.
# T1: Mouse MuSK as it stands on mouse muscle (neuromuscular junctions, C2C12 myotubes) (mouse, UniProt Q61006 22-868)
# T1 sequence (looked up): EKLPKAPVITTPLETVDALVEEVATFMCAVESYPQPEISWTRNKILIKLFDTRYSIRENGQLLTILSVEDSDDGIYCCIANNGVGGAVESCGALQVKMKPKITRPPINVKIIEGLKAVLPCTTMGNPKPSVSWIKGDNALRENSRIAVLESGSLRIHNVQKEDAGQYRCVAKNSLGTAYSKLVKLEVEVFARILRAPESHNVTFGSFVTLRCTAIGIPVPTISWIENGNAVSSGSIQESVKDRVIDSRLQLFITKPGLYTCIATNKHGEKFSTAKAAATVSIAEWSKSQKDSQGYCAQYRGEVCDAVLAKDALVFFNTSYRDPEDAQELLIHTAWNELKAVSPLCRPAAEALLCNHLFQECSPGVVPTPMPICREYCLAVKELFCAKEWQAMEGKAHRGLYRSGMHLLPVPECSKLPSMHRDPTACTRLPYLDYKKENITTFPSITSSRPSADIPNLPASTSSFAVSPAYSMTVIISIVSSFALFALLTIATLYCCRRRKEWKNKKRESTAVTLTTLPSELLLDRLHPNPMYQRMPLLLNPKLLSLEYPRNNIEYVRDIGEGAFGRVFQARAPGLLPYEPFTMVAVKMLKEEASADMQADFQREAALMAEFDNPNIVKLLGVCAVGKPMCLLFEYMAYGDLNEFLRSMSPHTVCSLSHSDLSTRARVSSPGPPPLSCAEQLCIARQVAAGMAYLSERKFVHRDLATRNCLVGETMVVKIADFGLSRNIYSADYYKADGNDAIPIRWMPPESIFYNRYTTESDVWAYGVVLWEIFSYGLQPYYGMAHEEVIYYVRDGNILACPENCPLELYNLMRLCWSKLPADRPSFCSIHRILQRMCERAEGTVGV
# T2: Human MuSK (R&D Systems, cat. 10189-MK, histidine tag) (human, UniProt O15146 24-495)
# T2 construct: Bought protein; also called human monomeric MuSK-6xhis; not shown: histidine tag (6xhis)
# T2 sequence: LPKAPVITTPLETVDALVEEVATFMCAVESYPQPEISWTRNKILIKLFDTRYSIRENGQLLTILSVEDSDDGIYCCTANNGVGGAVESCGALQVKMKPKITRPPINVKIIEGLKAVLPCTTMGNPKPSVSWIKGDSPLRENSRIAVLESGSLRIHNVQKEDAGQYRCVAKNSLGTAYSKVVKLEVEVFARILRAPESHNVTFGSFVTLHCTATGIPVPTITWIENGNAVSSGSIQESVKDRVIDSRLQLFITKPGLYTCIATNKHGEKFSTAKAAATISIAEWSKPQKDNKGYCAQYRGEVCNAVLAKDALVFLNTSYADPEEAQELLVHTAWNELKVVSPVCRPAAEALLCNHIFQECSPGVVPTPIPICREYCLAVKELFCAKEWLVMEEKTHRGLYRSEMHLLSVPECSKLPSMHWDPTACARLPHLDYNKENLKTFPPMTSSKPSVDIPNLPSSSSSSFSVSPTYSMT
# T3: human monomeric MuSK FLAG streptavidin (in house produced, batch 27-6-2019) (human, UniProt O15146 24-495)
# T3 construct: also called full length MuSK; not shown: FLAG and streptavidin tags
# T3 sequence: T2 sequence
# T4: hMuSK delta 1-2-3 (Fz) (human, UniProt O15146)
# T4 construct: truncated extracellular domain, captured by anti-FLAG
# T4 sequence (truncated extracellular domain, looked up): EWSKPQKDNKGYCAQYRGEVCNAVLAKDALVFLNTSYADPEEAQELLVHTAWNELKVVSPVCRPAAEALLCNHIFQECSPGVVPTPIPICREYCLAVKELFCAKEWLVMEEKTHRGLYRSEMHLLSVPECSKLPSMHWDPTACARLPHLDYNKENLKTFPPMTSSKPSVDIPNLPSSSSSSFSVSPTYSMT
# B1: 3D10a (antibody, human IgG1, kappa, L234A L235A, V domains shown)
# VH: EVQLVESGGGLVKPGGSLRLSCAASGFTFSASTMAWVRQAPGKGLEWVSSVSGDSHHIYYADSLKGRFTISRDNAKNSLYLQMNSLRAEDTAVYYCARERLLRLGVGFDSWGQGTLVTVSS
# VL: DIQMTQSPSSLSASVGDRVTITCRASQRISGFVNWYQQKPGKAPKLLIYAASTLQSGVPSRFSGSGSGTDFTLTISSLQPEDFATYYCQQSYSPLYTFGQGTKLEIKR
# B2: 3D9b (antibody, human IgG1, kappa, L234A L235A, V domains shown)
# VH: EVQLVESGGGLVKPGGSLRLSCAASGFTFSTYTMHWVRQAPGKGLEWVSSISSRSAYKYYADSVKGRFTISRDNAKNSLYLQMNSLRAEDTAVYYCARDFFQLGPPRFDSWGQGTLVTVSS
# VL: B1 VL with G31S, V33L, A50G, T53N, L95S
# B3: 3F6c (antibody, human IgG1, kappa, L234A L235A, V domains shown)
# VH: EVQLVESGGGLVKPGGSLRLSCAASGFTFSSYTMDWVRQAPGKGLEWVSSIGSNGDYIYYADSVRGRFTISRDNAKNSLYLQMNSLRAEDTAVYYCARGQLAVAGTHFDYWGQGTLVTVSS
# VL: B1 VL with R28K, I29V, S30N, G31K, F32Y, Y96S
# B4: 4D3 (antibody, human IgG1, kappa, L234A L235A, V domains shown)
# VH: B1 VH with A31S, S32Y, A35T, V51I, G53S, D54G, S55G, H57Y, A61T, S110F
# VL: B1 VL with R28S, F32Y, V33L, P94A
# Target: T1, Mouse MuSK as it stands on mouse muscle …
# Assay: cell-based or functional assay
row,"MuSK phosphorylation, % versus agrin (C2C12 myotubes) [% versus agrin]",Binder
1,83,B1
2,205,B2
3,100,B3
4,112,B4

# Target: T2, Human MuSK (R&D Systems, cat. 10189-MK, …)
# Assay: SPR (Biacore), MuSK-coated chip presaturated with 500 nM 3F6c (competitor)
# Procedure: A chip was coated with ˜5000 RU of human MuSK (Lot nr DHUCO 11908A, batch nr 1089_MK). In a first experiment the saturating concentration of the pre-leads was determined. This is the concentration where the amplitude of a specific pre-lead doesn't increase anymore when additional pre-lead is injected on the immobilized MuSK.
amplitude of prelead after presaturating MuSK (RU),extra amplitude (%),normalized extra amplitude (%),Binder
75,3.2,1.4,B1
191,11.5,9.7,B2
64,1.8,0,B3
68,2.8,1.1,B4

# Target: T3, human monomeric MuSK FLAG streptavidin …
# Assay: epitope binning ELISA (coated anti-MuSK Fab, MuSK, IgG, anti-Fc HRP); competitor: 3D9b
# Procedure: For epitope binning—An ELISA plate was coated at 1 μg/ml of the anti-MuSK Fabs and incubated overnight at 4° C. Next, the plate was wash with PBS followed by blocking with 1% casein in PBS for one hour. After washing the plate, 1 μg/ml of human monomeric MuSK (in house produced, batch 27-6-2019) was incubated for one hour at RT. The plate was washed and anti-MuSK antibodies at 0.3-10 μg/ml were added to the plate and incubated for one hour at RT. After washing the plate, detection antibody (goat anti-human Fc HRP (Jackson Immunoresearch cat. 109-035-098)) was added at 5000 fold dilution in PBS 0.1% casein. The plate was incubated for one hour at RT and washed with PBS-T. TMB was added and the reaction was stopped by adding H2504. […]
# For the epitope binning ELISA, a plate was coated with anti-MuSK Fab and human monomeric MuSK was added after blocking the plate. Next the different antibodies were added and allowed to bind.
row,OD 450 nm [OD],Binder
1,0.115,B1
2,0.15,B2
3,0.133,B3
4,0.061,B4

# Target: T4, hMuSK delta 1-2-3 (Fz)
# Assay: ELISA, hMuSK delta 1-2-3 (Fz) captured on anti-FLAG coat, antibody titrated, anti-human Fc HRP detection, OD450
# Procedure: For binding to MuSK domains—An ELISA plate was coated with 0.5 μg/ml of anti-FLAG (M2 clone, Sigma Cat. F3165) and incubated overnight at 4° C. Next, the plate was washed with PBS and blocked with 1×PBS 1% casein for two hours at RT. After washing the plate, human monomeric MuSK FLAG streptavidin (batch 27-6-2019) and truncated MuSK variants (batch 3-9-2019) at 1 μg/ml in PBS where incubated for one hour at RT. After washing the plate, antibodies were diluted in blocking buffer and added to the plate. After a one hour incubation at RT, the plate was washed. Next, detecting antibody was added and incubated for one hour at RT (anti-human Fc HRP (1/5000) (clone 5A9, cat. No. Ab7499, ABCAM)) in blocking buffer. Lastly, the plate was washed with PBS and TMB was added and the reaction was stopped with 0.5 M H2SO4. OD 450 nm was determined by the Tecan Sunrise ELISA plate reader.
# For the MuSK domain binding ELISA, binding of anti-MuSK antibodies to FLAG captured human monomeric MuSK and truncated variants was tested (FIG. 6). 3D9b, 3F6c, 3D10a, 4D3 and 3B5 bound only to full length MuSK, no binding was observed against the truncated MuSK variants. Therefore, we conclude that our antibodies bind to the Ig1 domain.
row,Binder,binding result
1,B1,no binding (tested: log(conc) 4.2 (about 16000 ng/ml))
2,B2,no binding (tested: log(conc) 4.2 (about 16000 ng/ml))
3,B3,no binding (tested: log(conc) 4.2 (about 16000 ng/ml))
4,B4,no binding (tested: log(conc) 4.2 (about 16000 ng/ml))
